Laboratory results reported in FireProtDB (doi:10.1111/j.1432-1033.1995.tb20713.x).

Settings: Saccharomyces cerevisiae (strain ATCC 204508 / S288c), Fluorescence, reversible: yes, whole UniProt chain shown
[1] = pH 4.6, Thermal, Acetic acid-NaOH 30 mM
[2] = pH 7.5, 5.2 °C, GdnHCl, MOPS-NaOH 30 mM
[3] = pH 7.5, 10.2 °C, GdnHCl, MOPS-NaOH 30 mM
[4] = pH 7.5, 15.2 °C, GdnHCl, MOPS-NaOH 30 mM
[5] = pH 7.5, Thermal, MOPS-NaOH 30 mM

B1: Adenylate kinase wild type, P07170 (protein)
chain: MSSSESIRMVLIGPPGAGKGTQAPNLQERFHAAHLATGDMLRSQIAKGTQLGLEAKKIMDQGGLVSDDIMVNMIKDELTNNPACKNGFILDGFPRTIPQAEKLDQMLKEQGTPLEKAIELKVDDELLVARITGRLIHPASGRSYHKIFNPPKEDMKDDVTGEALVQRSDDNADALKKRLAAYHAQTEPIVDFYKKTGIWAGVDASQPPATVWADILNKLGKD
For B1, the unfolding free energy (pH 4.6, 25 °C, Thermal, Acetic acid-NaOH 30 mM) was 2.15 kcal/mol, the Tm [1] was 48.6 °C and the “unfolding enthalpy (van 't Hoff)” value [1] was 57.4 kcal/mol. The denaturant m value [2] was 5.28 kcal/mol/M, the “denaturant midpoint (higher = more stable)” value (shortened to “denaturant midpoint”) [2] was 0.76 M and the unfolding free energy [2] was 3.97 kcal/mol. For the same protein, the denaturant m value [3] was 6.98 kcal/mol/M, the “denaturant midpoint” value [3] was 0.7 M and the unfolding free energy [3] was 4.9 kcal/mol. For the same protein, the denaturant m value [4] was 7.29 kcal/mol/M, the “denaturant midpoint” value [4] was 0.75 M and the unfolding free energy [4] was 5.47 kcal/mol. The unfolding free energy (pH 7.5, 25 °C, Thermal, MOPS-NaOH 30 mM) was 3.82 kcal/mol, the Tm [5] was 47.7 °C and the “unfolding enthalpy (van 't Hoff)” value [5] was 81.3 kcal/mol.
